The text below walks through data of US20110251256A1 (KOREA UNIVERSITY INDUSTRIAL AND ACADEMIC COLLABORATIVE …, published 2011).

T1: β-Catenin (endogenous protein of C2C12 myotubes) (UniProt Q02248 2-781)
T1 construct: also called 13-Catenin
T1 sequence (looked up): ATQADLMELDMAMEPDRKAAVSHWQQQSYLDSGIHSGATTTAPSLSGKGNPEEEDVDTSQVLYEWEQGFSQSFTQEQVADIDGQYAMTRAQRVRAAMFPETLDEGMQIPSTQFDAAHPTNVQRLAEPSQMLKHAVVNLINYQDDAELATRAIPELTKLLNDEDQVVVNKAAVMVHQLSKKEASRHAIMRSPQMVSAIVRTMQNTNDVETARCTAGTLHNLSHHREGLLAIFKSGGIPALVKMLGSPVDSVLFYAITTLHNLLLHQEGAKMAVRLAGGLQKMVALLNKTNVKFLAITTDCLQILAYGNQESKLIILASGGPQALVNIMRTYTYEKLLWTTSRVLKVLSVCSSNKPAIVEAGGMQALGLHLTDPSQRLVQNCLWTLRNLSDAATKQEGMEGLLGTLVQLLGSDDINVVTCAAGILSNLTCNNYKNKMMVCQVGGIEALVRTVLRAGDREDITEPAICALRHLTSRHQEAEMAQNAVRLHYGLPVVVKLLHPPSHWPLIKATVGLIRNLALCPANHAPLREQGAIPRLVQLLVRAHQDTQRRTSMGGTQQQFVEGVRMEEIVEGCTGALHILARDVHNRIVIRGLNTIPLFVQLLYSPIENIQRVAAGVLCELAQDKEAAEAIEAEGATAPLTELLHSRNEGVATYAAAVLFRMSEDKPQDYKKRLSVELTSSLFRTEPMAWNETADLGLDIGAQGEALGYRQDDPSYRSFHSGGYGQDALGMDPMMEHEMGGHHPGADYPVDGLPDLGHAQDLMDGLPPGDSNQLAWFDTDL

T2: M-Cadherin (endogenous protein of C2C12 myotubes), P33146
T2 chain: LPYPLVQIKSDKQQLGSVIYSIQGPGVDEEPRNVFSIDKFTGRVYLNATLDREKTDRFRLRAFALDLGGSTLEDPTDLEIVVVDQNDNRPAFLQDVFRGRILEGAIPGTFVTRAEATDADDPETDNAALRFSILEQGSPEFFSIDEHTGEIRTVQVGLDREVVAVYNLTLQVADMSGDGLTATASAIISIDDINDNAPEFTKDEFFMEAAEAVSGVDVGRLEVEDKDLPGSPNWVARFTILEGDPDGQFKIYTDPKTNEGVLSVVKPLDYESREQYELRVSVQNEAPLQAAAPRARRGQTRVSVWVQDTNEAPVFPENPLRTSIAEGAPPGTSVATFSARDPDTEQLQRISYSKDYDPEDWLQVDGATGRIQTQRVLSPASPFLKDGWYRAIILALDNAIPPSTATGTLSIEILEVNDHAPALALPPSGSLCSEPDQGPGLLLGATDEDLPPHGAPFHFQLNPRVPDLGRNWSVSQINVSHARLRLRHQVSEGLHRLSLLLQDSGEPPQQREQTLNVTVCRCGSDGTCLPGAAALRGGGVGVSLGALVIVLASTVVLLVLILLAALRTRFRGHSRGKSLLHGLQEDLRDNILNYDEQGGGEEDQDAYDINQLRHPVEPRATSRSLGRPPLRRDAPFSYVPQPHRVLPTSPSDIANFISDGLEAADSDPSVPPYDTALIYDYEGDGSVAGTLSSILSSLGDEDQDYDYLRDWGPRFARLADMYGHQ

T3: IRS-1 (endogenous protein of C2C12 cells), P35569
T3 chain: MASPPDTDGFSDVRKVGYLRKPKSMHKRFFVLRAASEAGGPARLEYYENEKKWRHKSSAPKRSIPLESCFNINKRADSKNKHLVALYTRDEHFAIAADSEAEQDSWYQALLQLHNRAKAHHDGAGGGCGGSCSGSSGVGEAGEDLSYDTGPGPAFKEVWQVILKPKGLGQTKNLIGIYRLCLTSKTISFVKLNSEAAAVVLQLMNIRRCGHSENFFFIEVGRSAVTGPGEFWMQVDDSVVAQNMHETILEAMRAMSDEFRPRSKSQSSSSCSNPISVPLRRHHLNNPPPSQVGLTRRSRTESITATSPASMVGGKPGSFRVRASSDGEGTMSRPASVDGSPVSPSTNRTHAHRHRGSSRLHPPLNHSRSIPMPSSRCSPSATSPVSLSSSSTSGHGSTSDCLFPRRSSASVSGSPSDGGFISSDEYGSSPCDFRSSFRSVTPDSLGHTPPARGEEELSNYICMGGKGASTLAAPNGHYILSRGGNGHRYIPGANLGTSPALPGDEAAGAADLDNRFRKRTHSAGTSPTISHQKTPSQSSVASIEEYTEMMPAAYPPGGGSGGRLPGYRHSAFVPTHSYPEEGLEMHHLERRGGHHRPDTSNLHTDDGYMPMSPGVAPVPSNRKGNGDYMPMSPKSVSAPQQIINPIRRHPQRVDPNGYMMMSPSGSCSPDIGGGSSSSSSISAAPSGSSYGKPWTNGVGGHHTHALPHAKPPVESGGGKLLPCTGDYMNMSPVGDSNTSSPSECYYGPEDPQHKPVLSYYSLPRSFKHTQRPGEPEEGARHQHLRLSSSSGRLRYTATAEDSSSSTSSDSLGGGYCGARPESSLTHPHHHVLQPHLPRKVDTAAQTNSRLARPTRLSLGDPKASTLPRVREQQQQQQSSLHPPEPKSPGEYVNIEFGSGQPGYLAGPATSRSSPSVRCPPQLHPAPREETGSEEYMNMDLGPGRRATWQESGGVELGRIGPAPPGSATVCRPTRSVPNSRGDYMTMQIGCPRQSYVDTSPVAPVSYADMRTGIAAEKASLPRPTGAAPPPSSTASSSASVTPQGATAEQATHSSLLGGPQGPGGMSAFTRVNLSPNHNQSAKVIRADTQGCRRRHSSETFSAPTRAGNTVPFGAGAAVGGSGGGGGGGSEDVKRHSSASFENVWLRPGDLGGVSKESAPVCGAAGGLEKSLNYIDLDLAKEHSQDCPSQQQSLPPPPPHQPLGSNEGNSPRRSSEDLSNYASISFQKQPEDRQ

T4: IRS-1 (endogenous protein of C2C12 cells) (UniProt P35569 1-1233)
T4 construct: also called insulin receptor substrate-1
T4 sequence (looked up): T3 chain

B1: M-Cadherin (endogenous protein of C2C12 myotubes) (other, UniProt P33146 60-784, looked up)
chain: T2 chain
B2: TRIM72 (endogenous protein of C2C12 myotubes) (enzyme)
chain: MSAAPGLLRQELSCPLCLQLFDAPVTAECGHSFCRACLIRVAGEPAADGTVACPCCQAPTRPQALSTNLQLSRLVEGLAQVPQGHCEEHLDPLSIYCEQDRTLVCGVCASLGSHRGHRLLPAAEAQARLKTQLPQQKMQLQEACMRKEKTVAVLEHQLVEVEETVRQFRGAVGEQLGKMRMFLAALESSLDREAERVRGDAGVALRRELSSLNSYLEQLRQMEKVLEEVADKPQTEFLMKFCLVTSRLQKILSESPPPARLDIQLPVISDDFKFQVWKKMFRALMPALEELTFDPSSAHPSLVVSSSGRRVECSDQKAPPAGEDTRQFDKAVAVVAQQLLSQGEHYWEVEVGDKPRWALGVMAADASRRGRLHAVPSQGLWLLGLRDGKILEAHVEAKEPRALRTPERPPARIGLYLSFADGVLAFYDASNPDVLTPIFSFHERLPGPVYPIFDVCWHDKGKNAQPLLLVGPEQEQA
notes: Endogenous protein in lysates of C2C12 myotubes; also called tripartite motif-containing 72

Series [1] concerns the target T1, β-Catenin (endogenous protein of C2C12 …). Put plainly: immunoprecipitation from myotubes treated with Si-Control or Si-TRIM72 (FIG. 12F).
The target in series [2] is T2, M-Cadherin (endogenous protein of C2C12 …).
In series [3] the target is T3, IRS-1 (endogenous protein of C2C12 …).
Series [4] has as its target B1. The experiment in a line: immunoprecipitation of myotube protein with TRIM72 antibody or M-Cadherin antibody (FIGS. 12G and 12H).
In series [5] the target is T4, IRS-1 (endogenous protein of C2C12 …). Put plainly: endogenous immunoprecipitation in C2C12 myotubes treated with IGF-I for 0, 5 and 30 minutes (FIG. 9A). The procedure:
Western blotting and immunostaining were performed as described in Kim, K. B. et al. Proteomics 6, 2444-53 (2006). For immunoprecipitation, cells were lysed in buffer containing 20 mM Tris-HCl pH 7.4, 137 mM NaCl, 1 mM MgCl₂, 1 mM CaCl₂, 20 mM NaF, 10 mM Na₄P₂O₇, 1% NP-40, 1 mM Na₃VO₄, 1 mM PMSF and protease inhibitor cocktail (Roche). The whole cell lysates (600 μg protein) were incubated with specific antibodies for 90 min and then with 50 μl of Protein A-sepharose or G-agarose bead (50%) slurry for 1 h. The immunoprecipitates were analyzed by Western blotting.
Next, the effect of TRIM72 on IGF-1-induced tyrosine phosphorylation of IGFR and IRS-1 was investigated. The tyrosine phosphorylation of IGFR induced by IGF-I was not changed by TRIM72 overexpression or knockdown (FIG. 8). […] Moreover, the molecular association of IRS-1 with PI3K after IGF-I stimulation was weakened by TRIM72 overexpression, but fortified by TRIM72 knockdown. […] In order to analyze the binding domains of TRIM72 and IRS-1, various mutants of both genes were manufactured (FIG. 9B) and transfected into 293 cells. Then, the binding activity was investigated by immunoprecipitation. […] It should be noted that the 293 cells were treated with MG132 (proteasome inhibitor) after transferring IRS-1 and TRIM72.

Regarding B1, the binding result in series [1] was “binds”.

As to B2, the “ubiquitination of M-Cadherin in myotubes with reduced TRIM72” value in series [2] is reported as “Si-Control treated cells showed stained band (which denotes ubiquitination), whereas Si-TRIM72-treated cells did not”. Also, in series [3], the “molecular association of IRS-1 with PI3K after IGF-I stimulation” value is listed as “the molecular association of IRS-1 with PI3K after IGF-I stimulation was weakened by TRIM72 overexpression, but fortified by TRIM72 knockdown” and the “tyrosine phosphorylation of IRS-1 induced by IGF-I” value is “the tyrosine phosphorylation of IRS-1 was decreased by TRIM72 overexpression, but increased by TRIM72 knockdown”. Besides, the binding result in series [4] is recorded as “binds”. Further, the binding result in series [5] is “binds”.
